The source of these data is US20110159009A1 (published 2011).

The target in test [1] is B20.4.1. Kind of test: SPR (BIAcore); FIG. 10; 37 C; ~60 RU VEGF immobilized; bivalent model.
Test [2] concerns the target B20.4.1. The test can be described thus: SPR (BIAcore); FIG. 11; 37 C; ~1000 RU VEGF immobilized; 1:1 Langmuir model. (In general: In SPR one partner is held on a chip, and binding of the other changes the refractive index at the surface.)

B1: hVEGF (ligand)
chain: APMAEGGGQNHHEVVKFMDVYQRSYCHPIETLVDIFQEYPDEIEYIFKPSCVPLMRCGGCCNDEGLECVPTEESNITMQIMRIKPHQGQHIGEMSFLQHNKCECRPKKDRARQENPCGPCSERRKHLFVQDPQTCKCSCKNTDSRCKARQLELNERTCRCDKPRR
For the molecule B1, the Kd with B20.4.1 [1] came to 0.02 nM; with B20.4.1 [2], 1.16 nM.

B2: mVEGF (ligand)
chain: APTTEGEQKSHEVIKFMDVYQRSYCRPIETLVDIFQEYPDEIEYIFKPSCVPLMRCAGCCNDEALECVPTSESNITMQIMRIKPHQSQHIGEMSFLQHSRCECRPKKDRTKPENHCEPCSERRKHLFVQDPQTCKCSCKNTDSRCKARQLELNERTCRCDKPRR
As for B2, the Kd with B20.4.1 [1] was 0.37 nM; with B20.4.1 [2] it was 2.26 nM.
